Test results as given in patent publication US20250223358A1 (ANTENGENE BIOLOGICS, published 2025).

Tests used:
human CD3 [1] = target: T1, human CD3 (human, UniProt P07766 23-207; P04234 22-171; P09693 23-182); test: cell-based or functional assay
human CD3 [2] = target: T1, human CD3; test: FACS on Jurkat cells

T1 sequence (P07766 23-207, chain 1 of 3): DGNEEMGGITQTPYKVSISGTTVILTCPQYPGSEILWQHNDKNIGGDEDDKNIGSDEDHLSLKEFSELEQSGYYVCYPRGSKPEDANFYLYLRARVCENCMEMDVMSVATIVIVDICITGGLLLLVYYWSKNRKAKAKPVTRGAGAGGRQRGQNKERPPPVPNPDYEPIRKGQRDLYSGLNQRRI
T1 sequence (P04234 22-171, chain 2 of 3): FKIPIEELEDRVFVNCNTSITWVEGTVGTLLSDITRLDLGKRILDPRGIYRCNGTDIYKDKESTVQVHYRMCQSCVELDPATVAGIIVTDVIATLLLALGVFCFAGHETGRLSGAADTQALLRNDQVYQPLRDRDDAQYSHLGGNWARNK
T1 sequence (P09693 23-182, chain 3 of 3): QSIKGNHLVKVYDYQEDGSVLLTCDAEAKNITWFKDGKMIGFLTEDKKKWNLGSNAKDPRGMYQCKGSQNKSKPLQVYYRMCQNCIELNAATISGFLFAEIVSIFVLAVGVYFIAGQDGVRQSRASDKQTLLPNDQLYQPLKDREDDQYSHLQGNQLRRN

| Binder | EC50_Fold change (Jurkat-NFAT-luciferase activation, normalized to ch40-C12-C10-E9) (human CD3 [1]) | Top signal_Fold change (Jurkat-NFAT-luciferase activation, normalized to ch40-C12-C10-E9) (human CD3 [1]) | EC50 (human CD3 [2]) | Top FACS signal (human CD3 [2]) |
| --- | --- | --- | --- | --- |
| hu40E9-L2H5 (antibody, V domains shown) VH: EVQLVQSGAEVKKPGSSVKVSCKASGYTFSSYVIHWVRQAPGQGLEWMGYINPGSGVIKYNEKFKGRVTLTSDKSTSTAYMELSSLRSEDTAVYYCARDSYYSYDGFAYWGQGTLVTVSS VL: EIVLTQSPDFQSVTPKEKVTITCSASSSVSYMHWYQQKPDQSPKRLIYDTSKLASGVPSRFSGSGSGTDFTLTINSLEAEDAATYYCQQWSSNPPTFGGGTKVEIK | 1.29 fold | 0.79 fold | 0.36 nM | 1920 |
| hu40E9-L2H6 (antibody, V domains shown) VH: EVQLVQSGAEVKKPGSSVKVSCKASGYTFSSYVIHWVRQAPGQGLEWMGYINPYNDVIKYNEKFKGRVTLTSDKSTSTAYMELSSLRSEDTAVYYCARESFSSYDGFAYWGQGTLVTVSS VL: EIVLTQSPDFQSVTPKEKVTITCSASSSVSYMHWYQQKPDQSPKRLIYDTSKLASGVPSRFSGSGSGTDFTLTINSLEAEDAATYYCQQWSSNPPTFGGGTKVEIK | 4.57 fold | 0.74 fold | 4.17 nM | 1260 |
| hu40E9-L2H7 (antibody, V domains shown) VH: EVQLVQSGAEVKKPGSSVKVSCKASGYTFSSYVIHWVRQAPGQGLEWMGYINPGNGVIKYNEKFKGRVTLTSDKSTSTAYMELSSLRSEDTAVYYCARDSYSSYDGFAYWGQGTLVTVSS VL: EIVLTQSPDFQSVTPKEKVTITCSASSSVSYMHWYQQKPDQSPKRLIYDTSKLASGVPSRFSGSGSGTDFTLTINSLEAEDAATYYCQQWSSNPPTFGGGTKVEIK | 1.18 fold | 0.77 fold | 0.66 nM | 2380 |
| hu40E9-L2H8 (antibody, V domains shown) VH: EVQLVQSGAEVKKPGSSVKVSCKASGYTFSSYVIHWVRQAPGQGLEWMGYINPGNDVIKYNEKFKGRVTLTSDKSTSTAYMELSSLRSEDTAVYYCARESYSSYDGFAYWGQGTLVTVSS VL: EIVLTQSPDFQSVTPKEKVTITCSASSSVSYMHWYQQKPDQSPKRLIYDTSKLASGVPSRFSGSGSGTDFTLTINSLEAEDAATYYCQQWSSNPPTFGGGTKVEIK | 18.4 fold | 0.69 fold | 28 nM | 1240 |
| hu40E9-L2H9 (antibody, V domains shown) VH: EVQLVQSGAEVKKPGSSVKVSCKASGYTFSSYVIHWVRQAPGQGLEWMGYINPYSDVIKYNEKFKGRVTLTSDKSTSTAYMELSSLRSEDTAVYYCARESFYSYDGFAYWGQGTLVTVSS VL: EIVLTQSPDFQSVTPKEKVTITCSASSSVSYMHWYQQKPDQSPKRLIYDTSKLASGVPSRFSGSGSGTDFTLTINSLEAEDAATYYCQQWSSNPPTFGGGTKVEIK | 2.49 fold | 0.87 fold | 0.56 nM | 1760 |
| hu40E9-L2H10 (antibody, V domains shown) VH: EVQLVQSGAEVKKPGSSVKVSCKASGYTFSSYVIHWVRQAPGQGLEWMGYINPYNDVIKYNEKFKGRVTLTSDKSTSTAYMELSSLRSEDTAVYYCARDSYYSYEAFAYWGQGTLVTVSS VL: EIVLTQSPDFQSVTPKEKVTITCSASSSVSYMHWYQQKPDQSPKRLIYDTSKLASGVPSRFSGSGSGTDFTLTINSLEAEDAATYYCQQWSSNPPTFGGGTKVEIK | 12.6 fold | 1.01 fold | 2.55 nM | 1680 |
| hu40E9-L2H11 (antibody, V domains shown) VH: EVQLVQSGAEVKKPGSSVKVSCKASGYTFSSYVIHWVRQAPGQGLEWMGYINPYNDVIKYNEKFKGRVTLTSDKSTSTAYMELSSLRSEDTAVYYCARDSYYSYRAFAYWGQGTLVTVSS VL: EIVLTQSPDFQSVTPKEKVTITCSASSSVSYMHWYQQKPDQSPKRLIYDTSKLASGVPSRFSGSGSGTDFTLTINSLEAEDAATYYCQQWSSNPPTFGGGTKVEIK | 2.97 fold | 0.85 fold | 5 nM | 2000 |
| hu40E9-L2H12 (antibody, V domains shown) VH: EVQLVQSGAEVKKPGSSVKVSCKASGYTFSSYVIHWVRQAPGQGLEWMGYINPYNDVIKYNEKFKGRVTLTSDKSTSTAYMELSSLRSEDTAVYYCARDDYYSYDGFAYWGQGTLVTVSS VL: EIVLTQSPDFQSVTPKEKVTITCSASSSVSYMHWYQQKPDQSPKRLIYDTSKLASGVPSRFSGSGSGTDFTLTINSLEAEDAATYYCQQWSSNPPTFGGGTKVEIK | 21.3 fold | 0.73 fold | 72.9 nM | 850 |
| hu40E9-L2H13 (antibody, V domains shown) VH: EVQLVQSGAEVKKPGSSVKVSCKASGYTFSSYVIHWVRQAPGQGLEWMGYINPYNDVIKYNEKFKGRVTLTSDKSTSTAYMELSSLRSEDTAVYYCARDGYYSYDGFAYWGQGTLVTVSS VL: EIVLTQSPDFQSVTPKEKVTITCSASSSVSYMHWYQQKPDQSPKRLIYDTSKLASGVPSRFSGSGSGTDFTLTINSLEAEDAATYYCQQWSSNPPTFGGGTKVEIK | 3.08 fold | 0.51 fold | 83.7 nM | 2050 |
| hu40E9-L2H14 (antibody, V domains shown) VH: EVQLVQSGAEVKKPGSSVKVSCKASGYTFSSYVIHWVRQAPGQGLEWMGYINPYNDVIKYNEKFKGRVTLTSDKSTSTAYMELSSLRSEDTAVYYCARESYYSYDGFAYWGQGTLVTVSS VL: EIVLTQSPDFQSVTPKEKVTITCSASSSVSYMHWYQQKPDQSPKRLIYDTSKLASGVPSRFSGSGSGTDFTLTINSLEAEDAATYYCQQWSSNPPTFGGGTKVEIK | 3.86 fold | 0.96 fold | 0.43 nM | 2020 |
| hu40E9-L2H15 (antibody, V domains shown) VH: EVQLVQSGAEVKKPGSSVKVSCKASGYTFSSYVIHWVRQAPGQGLEWMGYINPYNDVIKYNEKFKGRVTLTSDKSTSTAYMELSSLRSEDTAVYYCARGSYYSYDGFAYWGQGTLVTVSS VL: EIVLTQSPDFQSVTPKEKVTITCSASSSVSYMHWYQQKPDQSPKRLIYDTSKLASGVPSRFSGSGSGTDFTLTINSLEAEDAATYYCQQWSSNPPTFGGGTKVEIK | 98.6 fold | 0.75 fold | 51.7 nM | 796 |
| hu40E9-L2H16 (antibody, V domains shown) VH: EVQLVQSGAEVKKPGSSVKVSCKASGYTFSDYVIHWVRQAPGQGLEWMGYINPYNDVIKYNEKFKGRVTLTSDKSTSTAYMELSSLRSEDTAVYYCARDSYYSYDGFAYWGQGTLVTVSS VL: EIVLTQSPDFQSVTPKEKVTITCSASSSVSYMHWYQQKPDQSPKRLIYDTSKLASGVPSRFSGSGSGTDFTLTINSLEAEDAATYYCQQWSSNPPTFGGGTKVEIK | 6.18 fold | 1.35 fold | 1.27 nM | 2010 |
| hu40E9-L4H3 (antibody, V domains shown) VH: EVQLVQSGAEVKKPGSSVKVSCKASGYTFSSYVIHWVRQAPGQGLEWMGYINPYNDVIKYNEKFKGRVTLTSDKSTSTAYMELSSLRSEDTAVYYCARDSYYSYDGFAYWGQGTLVTVSS VL: EIVLTQSPDFQSVTPKEKVTITCSASSSVSYMHWYQQKPDQSPKRLIYDTSKLASGVPSRFSGSGSGTDFTLTINSLEAEDAATYYCQQWRSRPPTFGGGTKVEIK | 1.82 fold | 1.08 fold | 1.59 nM | 2490 |
| hu40E9-L4H7 (antibody, V domains shown) VH: EVQLVQSGAEVKKPGSSVKVSCKASGYTFSSYVIHWVRQAPGQGLEWMGYINPGNGVIKYNEKFKGRVTLTSDKSTSTAYMELSSLRSEDTAVYYCARDSYSSYDGFAYWGQGTLVTVSS VL: EIVLTQSPDFQSVTPKEKVTITCSASSSVSYMHWYQQKPDQSPKRLIYDTSKLASGVPSRFSGSGSGTDFTLTINSLEAEDAATYYCQQWRSRPPTFGGGTKVEIK | 1.95 fold | 1.12 fold | 1.52 nM | 1900 |
| hu40E9-L4H8 (antibody, V domains shown) VH: EVQLVQSGAEVKKPGSSVKVSCKASGYTFSSYVIHWVRQAPGQGLEWMGYINPGNDVIKYNEKFKGRVTLTSDKSTSTAYMELSSLRSEDTAVYYCARESYSSYDGFAYWGQGTLVTVSS VL: EIVLTQSPDFQSVTPKEKVTITCSASSSVSYMHWYQQKPDQSPKRLIYDTSKLASGVPSRFSGSGSGTDFTLTINSLEAEDAATYYCQQWRSRPPTFGGGTKVEIK | – | 0.32 fold | 26.9 nM | 255 |
| hu40E9-L5H3 (antibody, V domains shown) VH: EVQLVQSGAEVKKPGSSVKVSCKASGYTFSSYVIHWVRQAPGQGLEWMGYINPYNDVIKYNEKFKGRVTLTSDKSTSTAYMELSSLRSEDTAVYYCARDSYYSYDGFAYWGQGTLVTVSS VL: EIVLTQSPDFQSVTPKEKVTITCSASSSVSYMHWYQQKPDQSPKRLIYDTSKLASGVPSRFSGSGSGTDFTLTINSLEAEDAATYYCQQWRSSPPTFGGGTKVEIK | 23.2 fold | 1.47 fold | 0.66 nM | 2490 |
